Test results taken from patent publication US20140308281A1 (OSE IMMUNOTHERAPEUTICS, published 2014).
Positions count from the first letter of the chain named.

T1: CD127 (as used in the BIAcore measurement of Table 1) (human, UniProt P16871 21-239, limits assumed)
T1 construct: the Mabs are called anti-human CD127; also called alpha chain of the IL-7 receptor; IL-7Ralpha
T1 sequence (looked up): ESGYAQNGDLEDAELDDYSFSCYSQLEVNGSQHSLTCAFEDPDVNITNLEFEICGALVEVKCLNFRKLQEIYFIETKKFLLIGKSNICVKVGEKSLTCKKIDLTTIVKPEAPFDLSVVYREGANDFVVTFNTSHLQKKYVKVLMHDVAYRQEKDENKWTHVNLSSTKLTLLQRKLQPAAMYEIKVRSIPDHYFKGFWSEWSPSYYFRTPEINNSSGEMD

B1: MD707-13 (antibody, V domains shown)
VH: QLKESGPGLVQPSQTLSLTCTVSGLSLPNNNIAWIRQSPGKGLEWMGVIWSNGDTDYNSAIRSRLSISRDSSKSQVFLRMNSLQSEDTAMYFCAREGMTTLDYWGQGVVVTVSS
VL: EIVLTQSPTTMAASPGEKVTITCRASSSVSYMHWFQQKSGSSPKPWIYDSSDLASGVPDRFSGSGSGTSYSLTISSMEAEDAATYYCLQRSSYPRTFGGGTKLELKR
notes: also called 7MD07-13; rat anti-human CD127 Mab MD707-13
B2: MD707-1 (antibody, V domains shown)
VH: AVHLVESGGGLVQPKESLKISCAASGFTFSNAAMFWVRQAPGKGLEWVARIRTKANNYATYYADSVKGRFTISRDDSKSMVYLQMDNVKTDDTAMYYCIVVVLTTTRDYFDYWGQGVMVTVSS
VL: DIVLTQAPLSVSVTPGESASISCRSSQSLLTVKGITSLYWFLQKPGKSPQLLMYRMSNLASGVPDRFRGSGSETDFTLKISKVETEDVGVYYCAQFLEYPHTFGAGTKLELKR
notes: also called 7MD07-1; rat anti-human CD127 Mab MD707-1
B3: MD707-3 (antibody, V domains shown)
VH: B2 VH with F35Y, D64E
VL: B2 VL with M53I
notes: also called 7MD07-3; rat anti-human CD127 Mab MD707-3

Biological target: T1, CD127 (as used in the BIAcore …)
Experiment: SPR (BIAcore)

Binder	Kd [nM]
B1	1.31
B2	15.9
B3	6.52
